These results are taken from patent US20020160011A1, “ADJUVANT COMPOSITIONS FOR VACCINES” (priority 1997, published 2002).

Data set [1] is described as follows: Ability of other cytokines to enhance the effect of the QS21/MPL adjuvant. The following applies: cytokine added in place of IL-12.
The nature of data set [2]: Systemic toxicity of locally injected IL12 in immunised mice. The class given is in vivo.

As for “IFN-γ: other cytokine tested with the QS21/MPL adjuvant”, in data set [1], the “enhancement of the effect of the QS21/MPL adjuvant” value is given as “unable to enhance”.

Consider “GM-CSF: other cytokine tested with the QS21/MPL adjuvant”, for which, in data set [1], the “enhancement of the effect of the QS21/MPL adjuvant” value is given as “unable to enhance”.

Regarding “IL-6: other cytokine tested with the QS21/MPL adjuvant”, the “enhancement of the effect of the QS21/MPL adjuvant” value in data set [1] is on record as “unable to enhance”.

B1: IL12: murine IL12 purified from the supernatant of transfected P1HTR cells; heterodimeric cytokine (protein, UniProt P43431 23-215; P43432 23-335, looked up)
Interleukin-12 subunit alpha: RVIPVSGPARCLSQSRNLLKTTDDMVKTAREKLKHYSCTAEDIDHEDITRDQTSTLKTCLPLELHKNESCLATRETSSTTRGSCLPPQKTSLMMTLCLGSIYEDLKMYQTEFQAINAALQNHNHQQIILDKGMLVAIDELMQSLNHNGETLRQKPPVGEADPYRVKMKLCILLHAFSTRVVTINRVMGYLSSA
Interleukin-12 subunit beta: MWELEKDVYVVEVDWTPDAPGETVNLTCDTPEEDDITWTSDQRHGVIGSGKTLTITVKEFLDAGQYTCHKGGETLSHSHLLLHKKENGIWSTEILKNFKNKTFLKCEAPNYSGRFTCSWLVQRNMDLKFNIKSSSSSPDSRAVTCGMASLSAEKVTLDQRDYEKYSVSCQEDVTCPTAEETLPIELALEARQQNKYENYSTSFFIRDIIKPDPPKNLQMKPLKNSQVEVSWEYPDSWSTPHSYFSLKFFVRIQRKKEKMKETEEGCNQKGAFLVEKTSTEVQCKGGNVCVQAQDRYYNSSCSKWACVPCRVRS
Consider B1, for which the systemic toxicity result is given as “largely reduced but not totally absent” in data set [2] (decreased IL12 dose ('at that dose', b48: 10ng or 30 ng as printed)) and “systemic toxicity with symptoms similar to those observed in a LPS shock” in data set [2] (high dose of IL12 (1μg/mouse/day), injected locally, P198 experiments). The systemic toxic effects entry in data set [2] (high dose of IL12 (100ng (1000U)/mouse/day), P1A experiment) is “we observed systemic toxic effects”.

B2: IL-7: other cytokine tested with the QS21/MPL adjuvant (protein, UniProt P13232 26-177, looked up)
Interleukin-7: DCDIEGKDGKQYESVLMVSIDQLLDSMKEIGSNCLNNEFNFFKRHICDANKEGMFLFRAARKLRQFLKMNSTGDFDLHLLKVSEGTTILLNCTGQVKGRKPAALGEAQPTKSLEENKSLKEQKKLNDLCFLKRLLQEIKTCWNKILMGTKEH
On to B2, for which the “enhancement of the effect of the QS21/MPL adjuvant” value in data set [1] is given as “unable to enhance”.
